The values below come from IntAct's records for PubMed 18335997.

To fix the notation:
B1: Hemojuvelin (Homo sapiens), Q6ZVN8 (parent)
chain: MGEPGQSPSPRSSHGSPPTLSTLTLLLLLCGHAHSQCKILRCNAEYVSSTLSLRGGGSSGALRGGGGGGRGGGVGSGGLCRALRSYALCTRRTARTCRGDLAFHSAVHGIEDLMIQHNCSRQGPTAPPPPRGPALPGAGSGLPAPDPCDYEGRFSRLHGRPPGFLHCASFGDPHVRSFHHHFHTCRVQGAWPLLDNDFLFVQATSSPMALGANATATRKLTIIFKNMQECIDQKVYQAEVDNLPVAFEDGSINGGDRPGGSSLSIQTANPGNHVEIQAAYIGTTIIIRQTAGQLSFSIKVAEDVAMAFSAEQDLQLCVGGCPPSQRLSRSERNRRGAITIDTARRLCKEGLPVEDAYFHSCVFDVLISGDPNFTVAAQAALEDARAFLPDLEKLHLFPSDAGVPLSSATLLAPLLSGLFVLWLCIQ
partner: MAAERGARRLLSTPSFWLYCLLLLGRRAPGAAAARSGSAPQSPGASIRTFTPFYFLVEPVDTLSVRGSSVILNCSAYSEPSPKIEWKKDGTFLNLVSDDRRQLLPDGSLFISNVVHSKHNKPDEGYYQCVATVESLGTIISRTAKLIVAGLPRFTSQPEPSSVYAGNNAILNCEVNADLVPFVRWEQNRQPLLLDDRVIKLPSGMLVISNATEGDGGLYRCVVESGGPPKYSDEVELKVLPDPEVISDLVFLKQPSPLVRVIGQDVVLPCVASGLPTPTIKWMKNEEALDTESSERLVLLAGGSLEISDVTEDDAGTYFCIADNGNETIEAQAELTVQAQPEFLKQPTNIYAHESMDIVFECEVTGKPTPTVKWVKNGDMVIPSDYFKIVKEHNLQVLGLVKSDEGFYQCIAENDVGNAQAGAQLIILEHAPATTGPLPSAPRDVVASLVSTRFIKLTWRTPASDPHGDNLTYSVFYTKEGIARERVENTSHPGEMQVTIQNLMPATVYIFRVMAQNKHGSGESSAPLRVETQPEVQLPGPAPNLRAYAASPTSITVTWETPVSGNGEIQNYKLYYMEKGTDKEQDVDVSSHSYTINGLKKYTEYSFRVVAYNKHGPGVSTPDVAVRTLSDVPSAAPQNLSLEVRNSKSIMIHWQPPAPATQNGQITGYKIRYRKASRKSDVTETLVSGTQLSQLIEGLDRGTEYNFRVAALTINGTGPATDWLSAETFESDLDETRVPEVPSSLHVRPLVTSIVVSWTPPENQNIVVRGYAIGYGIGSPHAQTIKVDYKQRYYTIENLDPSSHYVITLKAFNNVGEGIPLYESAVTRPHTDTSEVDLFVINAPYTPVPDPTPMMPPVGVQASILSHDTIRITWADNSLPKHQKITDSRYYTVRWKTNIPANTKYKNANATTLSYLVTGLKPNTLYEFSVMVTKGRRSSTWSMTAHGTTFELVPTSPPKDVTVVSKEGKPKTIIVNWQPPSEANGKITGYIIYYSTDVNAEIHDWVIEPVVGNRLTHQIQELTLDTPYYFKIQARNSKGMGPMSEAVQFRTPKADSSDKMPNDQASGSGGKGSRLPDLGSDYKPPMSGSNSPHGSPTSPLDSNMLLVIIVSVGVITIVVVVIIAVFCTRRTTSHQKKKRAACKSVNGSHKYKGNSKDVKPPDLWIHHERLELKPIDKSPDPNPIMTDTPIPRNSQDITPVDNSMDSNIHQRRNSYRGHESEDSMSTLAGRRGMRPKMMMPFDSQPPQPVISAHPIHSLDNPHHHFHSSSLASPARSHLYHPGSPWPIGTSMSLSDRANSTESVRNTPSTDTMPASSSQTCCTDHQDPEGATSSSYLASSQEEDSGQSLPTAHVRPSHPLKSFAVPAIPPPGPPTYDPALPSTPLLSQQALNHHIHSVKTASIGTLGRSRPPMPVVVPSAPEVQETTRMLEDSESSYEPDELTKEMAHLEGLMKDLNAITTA

In this test the parent is B1. The following applies: with neo1_human NEO1, Q92859.
For D172A, the “effect of a mutation on the interaction” value is given as “decreasing interaction strength”.
